The values that follow come from US10280205B2, “Method for treating cancer with an activated T lymphocyte that selectively recognizes a cancer cell consisting of specific peptide” (immatics biotechnologies GmbH, priority 2015, dated 2019).

The target in this assay is HLA-A*02:01 (Homo sapiens, UniProt P04439, D140Y/D185E/D98H/E176V/E277Q/G131W/G231S/I119V/I121R/I166T/I218V/L300P/L318F/N151K/N90K/P208A/P217A/Q86G/Q94H/R138H/R169H/T345S). Kind of assay: MHC binding assay: UV-ligand exchange with beta2m ELISA (exchange yield). The settings on record: binding to HLA-A*02:01, β2m ELISA. An outline of the steps: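 Peptide–HLA-A*02:01 complexes formed by UV-induced exchange of a photocleavable ligand for the test peptide. Exchange products diluted 100-fold and captured on streptavidin-coated plates. Stabilized complexes detected with HRP anti-β2m (1 h, 37° C.) and TMB, A450; exchange yield reported.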
(ELISA stands for enzyme-linked immunosorbent assay.)

As to “83 (ILAPTVMMI; listed as Homo sapiens) [compound 83]”, the “Peptide exchange (MHC class I binding score, peptide exchange yield)” value (shortened to “Peptide exchange”) is on record as ““+++” (≥50 = +++)”. The same measure for “353 (YLFEMDSSL; listed as Homo sapiens) [compound 353]”: ““++” (≥20% = ++)”; for “449 (KLAEGLDIQL; listed as Homo sapiens) [compound 449]”: ““+++” (≥50 = +++)”; for “523 (YQIPRTFTL; listed as Homo sapiens) [compound 523]”: ““++” (≥20% = ++)”. The same measure for “521 (MLLTKLPTI; listed as Homo sapiens) [compound 521]”: ““+++” (≥50 = +++)”; for “40 (TLLVKVFSV; listed as Homo sapiens) [compound 40]”: ““+++” (≥50 = +++)”. The value for “325 (FIMPATVADATAV; listed as Homo sapiens) [compound 325]” was ““+++” (≥50 = +++)”. Consider “128 (YLFDDPLSAV; listed as Homo sapiens) [compound 128]”, for which the “Peptide exchange” value was ““++” (≥20% = ++)”. The value for “448 (NLLETKLQL; listed as Homo sapiens) [compound 448]” was ““+++” (≥50 = +++)”.

Consider “345 (VIWKALIHL; listed as Homo sapiens) [compound 345]”, for which the “Peptide exchange” value was ““+++” (≥50 = +++)”. The same measure for “405 (ALYDVFLEV; listed as Homo sapiens) [compound 405]”: ““++” (≥20% = ++)”. The same measure for “361 (ALYELEGTTV; listed as Homo sapiens) [compound 361]”: ““+++” (≥50 = +++)”. For the substance “549 (AMLENASDIKL; listed as Homo sapiens) [compound 549]”, the “Peptide exchange” value is ““+++” (≥50 = +++)”. The value for “173 (LLDSASAGLYL; listed as Homo sapiens) [compound 173]” was ““+++” (≥50 = +++)”; that for “170 (RLQETLSAA; listed as Homo sapiens) [compound 170]” was ““+++” (≥50 = +++)”. Take “355 (SIQQSIERLLV; listed as Homo sapiens) [compound 355]”: the “Peptide exchange” value is ““++” (≥20% = ++)”. The same measure for “125 (VQIHQVAQV; listed as Homo sapiens) [compound 125]”: ““+++” (≥50 = +++)”; for “478 (YLLHEKLNL; listed as Homo sapiens) [compound 478]”: ““+++” (≥50 = +++)”. For the substance “477 (ALLPASGQIAL; listed as Homo sapiens) [compound 477]”, the “Peptide exchange” value was ““+++” (≥50 = +++)”. The value for “467 (FLAKDFNFL; listed as Homo sapiens) [compound 467]” was ““+++” (≥50 = +++)”; that for “44 (ILDPISSGFLL; listed as Homo sapiens) [compound 44]” was ““++” (≥20% = ++)”.

Consider “165 (SLLDEIRAV; listed as Homo sapiens) [compound 165]”, for which the “Peptide exchange” value is ““+++” (≥50 = +++)”. The value for “151 (KILQQLVTL; listed as Homo sapiens) [compound 151]” was ““+++” (≥50 = +++)”; that for “136 (YLADPSNLFVV; listed as Homo sapiens) [compound 136]” was ““+++” (≥50 = +++)”; that for “126 (VLAYFLPEA; listed as Homo sapiens) [compound 126]” was ““++++” (≥75% = ++++)”. Take “324 (FLYDEIEAEV; listed as Homo sapiens) [compound 324]”: the “Peptide exchange” value is recorded as ““+++” (≥50 = +++)”. The value for “6 (VLVSDGVHSV; listed as Homo sapiens) [compound 6]” was ““+++” (≥50 = +++)”; that for “524 (ALIENLTHQI; listed as Homo sapiens) [compound 524]” was ““++” (≥20% = ++)”. The same measure for “436 (HLAEVSAEV; listed as Homo sapiens) [compound 436]”: ““+++” (≥50 = +++)”. The same measure for “473 (AMATESILHFA; listed as Homo sapiens) [compound 473]”: ““+++” (≥50 = +++)”; for “230 (ILVDWLVEV; listed as Homo sapiens) [compound 230]”: ““+” (≥10% = +)”. As to “300 (ALLGQTFSL; listed as Homo sapiens) [compound 300]”, the “Peptide exchange” value was ““+++” (≥50 = +++)”. The same measure for “340 (ALLSMTFPL; listed as Homo sapiens) [compound 340]”: ““++++” (≥75% = ++++)”. The value for “46 (ILTEENIHL; listed as Homo sapiens) [compound 46]” was ““+++” (≥50 = +++)”.

As for “620 (KLLNKIYEA; listed as Homo sapiens) [compound 620]”, the “Peptide exchange” value is on record as ““++++” (≥75% = ++++)”. The value for “601 (SAFPFPVTV; listed as Homo sapiens) [compound 601]” was ““+++” (≥50 = +++)”; that for “262 (LLWGDLIWL; listed as Homo sapiens) [compound 262]” was ““+++” (≥50 = +++)”; that for “453 (KLLEATSAV; listed as Homo sapiens) [compound 453]” was ““++” (≥20% = ++)”. Consider “67 (TLLAEALVTV; listed as Homo sapiens) [compound 67]”, for which the “Peptide exchange” value is given as ““+++” (≥50 = +++)”. The same measure for “207 (GLTSTNAEV; listed as Homo sapiens) [compound 207]”: ““++” (≥20% = ++)”; for “615 (VLPPDTDPA; listed as Homo sapiens) [compound 615]”: ““++” (≥20% = ++)”. The same measure for “193 (QLLDADGFLNV; listed as Homo sapiens) [compound 193]”: ““+++” (≥50 = +++)”. The value for “497 (GLLEKLTAI; listed as Homo sapiens) [compound 497]” was ““+++” (≥50 = +++)”. Take “388 (SLTIDGIRYV; listed as Homo sapiens) [compound 388]”: the “Peptide exchange” value is ““+++” (≥50 = +++)”. The same measure for “120 (ALLGIPLTLV; listed as Homo sapiens) [compound 120]”: ““+++” (≥50 = +++)”; for “221 (ALYEEGLLL; listed as Homo sapiens) [compound 221]”: ““++” (≥20% = ++)”.
